Experiment [1] addresses SARS-CoV-2 spike S2 peptide 1141-1155, biotinylated (SARS-CoV-2). In words: DELFIA on captured biotin-peptide. Also on record: unit not given beside the values.
Experiment [2] concerns the target SARS-CoV-2 spike S2 peptide 1149-1167, biotinylated (SARS-CoV-2). The experiment can be described thus: DELFIA on captured biotin-peptide. On the set-up: unit not given beside the values.
For experiment [3], the target named is SARS-CoV-2 spike S2 peptide 1145-1159, biotinylated (SARS-CoV-2). The experiment can be described thus: DELFIA on captured biotin-peptide. Also on record: unit not given beside the values.
Experiment [4] addresses SARS-CoV-2 spike S2 peptide 1133-1147, biotinylated (SARS-CoV-2). The experiment can be described thus: DELFIA on captured biotin-peptide. On the set-up: unit not given beside the values.
In experiment [5] the target is SARS-CoV-2 spike S2 peptide 1137-1151, biotinylated (SARS-CoV-2). The experiment can be described thus: DELFIA on captured biotin-peptide. On the set-up: unit not given beside the values.
In experiment [6] the target is SARS-CoV-2 spike S2 peptide 1143-1162, biotinylated (SARS-CoV-2). The experiment can be described thus: DELFIA on captured biotin-peptide. On the set-up: unit not given beside the values.
Experiment [7] has as its target SARS-CoV-2 spike S2 peptide 1157-1171, biotinylated (SARS-CoV-2). In words: DELFIA on captured biotin-peptide. On the set-up: unit not given beside the values.
The target of experiment [8] is SARS-CoV-2 spike S2 peptide 1153-1167, biotinylated (SARS-CoV-2). In words: DELFIA on captured biotin-peptide. Also on record: unit not given beside the values.
For experiment [9], the target named is SARS-CoV-2 spike S2 peptide 1149-1163, biotinylated (SARS-CoV-2). In words: DELFIA on captured biotin-peptide. Also on record: unit not given beside the values.
Experiment [10] addresses SARS-CoV-2 XBB.1.5 spike protein (SARS-CoV-2). In words: cell-based or functional assay.
Experiment [11] has as its target SARS-CoV-2 BQ.1.1 spike protein (SARS-CoV-2). The experiment can be described thus: cell-based or functional assay.
Experiment [12] concerns the target SARS-CoV-2 Delta (B.1.617.2) spike protein (SARS-CoV-2). In words: cell-based or functional assay.
Experiment [13] concerns the target SARS-CoV-2 XBB.1.5 spike protein (SARS-CoV-2). The experiment can be described thus: cell-based or functional assay. This is another data set of the same source.
Experiment [14] deals with SARS-CoV-2 BQ.1.1 spike protein (SARS-CoV-2). The experiment can be described thus: cell-based or functional assay. The source holds these as a separate data set.
Experiment [15] has as its target SARS-CoV-2 Delta (B.1.617.2) spike protein (SARS-CoV-2). The experiment can be described thus: cell-based or functional assay. The source holds these as a separate data set.
The target of experiment [16] is SARS-CoV-2 XBB.1.5 spike protein (SARS-CoV-2). In words: cell-based or functional assay. The source holds these as a separate data set.
Experiment [17] deals with SARS-CoV-2 BQ.1.1 spike protein (SARS-CoV-2). In words: cell-based or functional assay. The source holds these as a separate data set.
Experiment [18] deals with SARS-CoV-2 Delta (B.1.617.2) spike protein (SARS-CoV-2). In words: cell-based or functional assay. This is another data set of the same source.
For experiment [19], the target named is SARS-CoV-2 XBB.1.5 spike protein (SARS-CoV-2). The experiment can be described thus: cell-based or functional assay. The source holds these as a separate data set.
Experiment [20] has as its target SARS-CoV-2 BQ.1.1 spike protein (SARS-CoV-2). In words: cell-based or functional assay. The source holds these as a separate data set.
Experiment [21] concerns the target SARS-CoV-2 Delta (B.1.617.2) spike protein (SARS-CoV-2). In words: cell-based or functional assay. This is another data set of the same source.
For experiment [22], the target named is SARS-CoV-2 BA.2 spike protein (SARS-CoV-2). In words: cell-based or functional assay.

“isotype control (palivizumab variable regions expressed as human IgG1 with LS mutation in the Fc region) (antibody)”: the AUC in experiment [1] was 13300; in [2], 2600; in experiment [3] it was 1520; in [4] it was 4060; in experiment [5], 19300; in experiment [6], 3110. The AUC in experiment [7] came out at 3110; in experiment [8], 8120; in experiment [9] it was 20500.
In the case of Sotrovimab VH/VL-huIgG1-LS (antibody), the pseudovirus neutralization EC80, Vero E6 (sotrovimab VH/VL-huIgG1-LS + isotype) in experiment [10] turned out to be 0.68 µg/mL; in experiment [11], 4.4 µg/mL; in experiment [12], 0.042 µg/mL. Moreover, the pseudovirus neutralization EC50, Vero E6 (sotrovimab VH/VL-huIgG1-LS + isotype) is 0.17 µg/mL in experiment [13], 1.2 µg/mL in experiment [14] and 0.0079 µg/mL in experiment [15]. In addition, the pseudovirus neutralization Emax, Vero E6 (sotrovimab VH/VL-huIgG1-LS + isotype) (% neutralization) in [16] is 93.4; in [17] it was 71.9; in experiment [18] it was 96.9. The figures for the pseudovirus neutralization EC90, Vero E6 (sotrovimab VH/VL-huIgG1-LS + isotype) in experiment [19], in experiment [20] and in experiment [21] were 1.5 µg/mL, 9.6 µg/mL and 0.11 µg/mL, respectively. In addition, the pseudovirus neutralization EC50, Vero E6 in experiment [22] is 0.851 µg/mL.

The values above are taken from patent US20240360203A1.
